Like-named read-outs stand apart in the source and are kept apart here. Bridge positions count the residues as written; N and C are the ends. Square brackets hold non-standard residues; d marks the D form. Primed or numbered codes have the meaning given here. Ends that are not written are not given here. * marks the point of attachment. NH(3,5-(CF3)2-benzyl) = FC(F)(F)c1cc(CN*)cc(C(F)(F)F)c1; OBzl(3,5-(CF3)2) = FC(F)(F)c1cc(CO*)cc(C(F)(F)F)c1; Glc″ = glucosyl on the serine side-chain oxygen; Nle = CCCC[C@H](N)C(=O)O; NHBn = c1ccc(CN*)cc1
Experiments:
human δ opioid receptor [1] = molecular target: T1, human δ opioid receptor (human, UniProt P41143 1-372); assay: cell-based or functional assay
T1 sequence (P41143 whole entry, stated change not applied): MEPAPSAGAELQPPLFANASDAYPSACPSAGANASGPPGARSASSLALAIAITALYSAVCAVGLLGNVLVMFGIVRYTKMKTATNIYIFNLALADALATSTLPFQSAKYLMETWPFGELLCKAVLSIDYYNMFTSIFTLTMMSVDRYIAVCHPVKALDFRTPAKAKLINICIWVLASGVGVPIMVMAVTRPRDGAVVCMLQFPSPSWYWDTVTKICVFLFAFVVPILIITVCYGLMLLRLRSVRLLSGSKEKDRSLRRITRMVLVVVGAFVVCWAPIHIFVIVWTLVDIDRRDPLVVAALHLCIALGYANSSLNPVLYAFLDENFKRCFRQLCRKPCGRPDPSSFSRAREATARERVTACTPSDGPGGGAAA

rat µ opioid receptor [2] = molecular target: T2, rat µ opioid receptor (rat, UniProt P33535 1-398); assay: cell-based or functional assay
T2 sequence (P33535 whole entry): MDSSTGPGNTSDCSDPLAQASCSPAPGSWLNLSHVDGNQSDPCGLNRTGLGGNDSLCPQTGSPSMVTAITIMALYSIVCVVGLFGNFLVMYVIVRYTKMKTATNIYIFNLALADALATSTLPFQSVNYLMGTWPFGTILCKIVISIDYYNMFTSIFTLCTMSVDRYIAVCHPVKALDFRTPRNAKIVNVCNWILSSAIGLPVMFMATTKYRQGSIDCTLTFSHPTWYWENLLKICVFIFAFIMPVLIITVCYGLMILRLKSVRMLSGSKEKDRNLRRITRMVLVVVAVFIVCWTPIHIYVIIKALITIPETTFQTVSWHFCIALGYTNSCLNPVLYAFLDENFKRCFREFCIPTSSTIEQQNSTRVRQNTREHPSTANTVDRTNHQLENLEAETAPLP

rat NK1 receptor [3] = molecular target: T3, rat NK1 receptor (rat, UniProt P14600 1-407); assay: competition vs [3H]substance P, membranes of rNK1-transfected CHO cells
T3 construct: whole, on cells; Assayed as membrane preparations of transfected CHO cells; also called rNK1; rNK-1
T3 sequence (P14600 whole entry): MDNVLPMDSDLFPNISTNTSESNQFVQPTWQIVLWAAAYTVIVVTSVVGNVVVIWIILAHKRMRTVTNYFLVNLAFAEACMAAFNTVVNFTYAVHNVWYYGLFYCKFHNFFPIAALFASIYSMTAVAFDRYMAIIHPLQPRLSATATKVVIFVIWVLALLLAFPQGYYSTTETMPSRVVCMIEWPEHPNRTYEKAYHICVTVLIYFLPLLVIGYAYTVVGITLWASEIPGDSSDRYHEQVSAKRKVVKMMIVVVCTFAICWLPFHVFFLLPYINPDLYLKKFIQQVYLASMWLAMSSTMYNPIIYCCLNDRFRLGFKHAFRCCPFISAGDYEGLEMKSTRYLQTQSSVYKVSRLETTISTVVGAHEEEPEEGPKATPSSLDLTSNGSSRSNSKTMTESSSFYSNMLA

human δ opioid receptor [4] = molecular target: T1, human δ opioid receptor; assay: cell-based or functional assay; remark: listed apart in the source
rat µ opioid receptor [5] = molecular target: T2, rat µ opioid receptor; assay: cell-based or functional assay; remark: listed apart in the source
guinea pig NK1 receptor [6] = molecular target: guinea pig NK1 receptor (guinea pig, UniProt P30547 1-407); assay: cell-based or functional assay
Target sequence in this assay (P30547 whole entry): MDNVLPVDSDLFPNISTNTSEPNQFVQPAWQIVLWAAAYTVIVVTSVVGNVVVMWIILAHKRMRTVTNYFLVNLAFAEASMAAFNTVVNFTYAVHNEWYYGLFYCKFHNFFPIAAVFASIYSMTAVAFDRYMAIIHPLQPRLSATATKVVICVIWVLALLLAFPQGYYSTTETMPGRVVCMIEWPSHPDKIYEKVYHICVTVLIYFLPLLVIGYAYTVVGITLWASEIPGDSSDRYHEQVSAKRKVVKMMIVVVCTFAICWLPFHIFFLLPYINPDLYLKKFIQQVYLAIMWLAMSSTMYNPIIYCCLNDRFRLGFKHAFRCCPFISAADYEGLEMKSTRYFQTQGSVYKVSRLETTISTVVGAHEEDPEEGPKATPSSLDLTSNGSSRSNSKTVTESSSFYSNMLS

[7] = molecular target: µ opioid receptor of the guinea pig isolated ileum (guinea pig); assay: cell-based or functional assay
human δ opioid receptor [8] = molecular target: T1, human δ opioid receptor; assay: competition vs [3H]DPDPE, membranes of hDOR-transfected HN9.10 cells
human δ opioid receptor [9] = molecular target: T1, human δ opioid receptor; assay: as above; remark: listed apart in the source
rat NK1 receptor [10] = molecular target: T3, rat NK1 receptor; assay: competition vs [3H]substance P, membranes of rNK1-transfected CHO cells; remark: listed apart in the source
human δ opioid receptor [11] = molecular target: T1, human δ opioid receptor; assay: ratio of Ki at rMOR to Ki at hDOR
rat µ opioid receptor [12] = molecular target: T2, rat µ opioid receptor; assay: competition vs [3H]DAMGO, membranes of rMOR-transfected HN9.10 cells
rat NK1 receptor [13] = molecular target: T4, rat NK1 receptor (rat, UniProt P14600 1-407); assay: competition vs [3H]Substance P, rNK1 CHO cell membranes
T4 construct: whole, on cells; membrane preparations of the transfected cells were used; also called rNK1; rNK-1
T4 sequence (P14600 whole entry): as the sequence (P14600 whole entry) above

human δ opioid receptor [14] = molecular target: T5, human δ opioid receptor (human, UniProt P41143 1-372); assay: cell-based or functional assay; remark: listed apart in the source
T5 sequence (P41143 whole entry, stated change not applied): as the sequence (P41143 whole entry, stated change not applied) above

rat µ opioid receptor [15] = molecular target: T6, rat µ opioid receptor (rat, UniProt P33535 1-398); assay: cell-based or functional assay; remark: listed apart in the source
T6 sequence (P33535 whole entry): as the sequence (P33535 whole entry) above

[16] = molecular target: T7, µ opioid receptor of the guinea pig isolated ileum (guinea pig, UniProt P97266 1-98); assay: cell-based or functional assay
T7 sequence (P97266 whole entry): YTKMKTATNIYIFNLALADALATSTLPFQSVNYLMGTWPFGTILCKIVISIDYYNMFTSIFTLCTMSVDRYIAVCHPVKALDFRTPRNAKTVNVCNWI

guinea pig NK1 receptor [17] = molecular target: T8, guinea pig NK1 receptor (guinea pig, UniProt P30547 1-407); assay: cell-based or functional assay; remark: listed apart in the source
T8 sequence (P30547 whole entry): as the sequence (P30547 whole entry) above

human δ opioid receptor [18] = molecular target: T5, human δ opioid receptor; assay: competition vs [3H]DPDPE, hDOR cell membranes
[19] = molecular target: T7, µ opioid receptor of the guinea pig …; assay: cell-based or functional assay; remark: listed apart in the source
guinea pig NK1 receptor [20] = molecular target: T8, guinea pig NK1 receptor; assay: cell-based or functional assay; remark: listed apart in the source
human δ opioid receptor [21] = molecular target: T5, human δ opioid receptor; assay: competition vs [3H]DPDPE, hDOR cell membranes; remark: listed apart in the source
rat NK1 receptor [22] = molecular target: T4, rat NK1 receptor; assay: competition vs [3H]Substance P, rNK1 CHO cell membranes; remark: listed apart in the source
[23] = molecular target: T7, µ opioid receptor of the guinea pig …; assay: cell-based or functional assay; remark: listed apart in the source
guinea pig NK1 receptor [24] = molecular target: T8, guinea pig NK1 receptor; assay: cell-based or functional assay; remark: listed apart in the source
human NK1 receptor [25] = molecular target: T9, human NK1 receptor (human, UniProt P25103 1-407); assay: competition vs [3H]Substance P, hNK1 CHO cell membranes
T9 construct: whole, on cells; membrane preparations of the transfected cells were used; also called hNK1; human neurokinin-1 receptor
T9 sequence (P25103 whole entry): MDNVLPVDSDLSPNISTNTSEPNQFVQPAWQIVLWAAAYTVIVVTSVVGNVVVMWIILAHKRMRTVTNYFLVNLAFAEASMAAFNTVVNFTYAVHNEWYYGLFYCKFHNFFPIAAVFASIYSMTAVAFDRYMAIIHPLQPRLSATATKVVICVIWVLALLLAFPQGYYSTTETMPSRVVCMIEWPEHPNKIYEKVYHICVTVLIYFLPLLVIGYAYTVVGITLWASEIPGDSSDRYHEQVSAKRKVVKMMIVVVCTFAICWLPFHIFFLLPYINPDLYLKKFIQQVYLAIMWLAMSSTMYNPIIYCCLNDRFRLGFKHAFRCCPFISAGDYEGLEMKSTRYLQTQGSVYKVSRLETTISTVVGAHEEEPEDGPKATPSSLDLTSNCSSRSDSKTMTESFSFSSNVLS

human δ opioid receptor [26] = molecular target: T5, human δ opioid receptor; assay: competition vs [3H]DPDPE, hDOR cell membranes; remark: listed apart in the source
[27] = molecular target: T7, µ opioid receptor of the guinea pig …; assay: cell-based or functional assay; remark: listed apart in the source
guinea pig NK1 receptor [28] = molecular target: T8, guinea pig NK1 receptor; assay: cell-based or functional assay; remark: listed apart in the source
human δ opioid receptor [29] = molecular target: T5, human δ opioid receptor; assay: cell-based or functional assay; remark: listed apart in the source
rat NK1 receptor [30] = molecular target: T4, rat NK1 receptor; assay: competition vs [3H]Substance P, rNK1 CHO cell membranes; remark: listed apart in the source
rat µ opioid receptor [31] = molecular target: T6, rat µ opioid receptor; assay: competition vs [3H]DAMGO, rMOR cell membranes
human δ opioid receptor [32] = molecular target: T5, human δ opioid receptor; assay: cell-based or functional assay; remark: listed apart in the source
[33] = molecular target: T7, µ opioid receptor of the guinea pig …; assay: cell-based or functional assay; remark: listed apart in the source
guinea pig NK1 receptor [34] = molecular target: T8, guinea pig NK1 receptor; assay: cell-based or functional assay; remark: listed apart in the source
rat µ opioid receptor [35] = molecular target: T6, rat µ opioid receptor; assay: cell-based or functional assay; remark: listed apart in the source
rat µ opioid receptor [36] = molecular target: T6, rat µ opioid receptor; assay: competition vs [3H]DAMGO, rMOR cell membranes; remark: listed apart in the source
human NK1 receptor [37] = molecular target: T9, human NK1 receptor; assay: competition vs [3H]Substance P, hNK1 CHO cell membranes; remark: listed apart in the source

H-Y[dA]GFMPLW-{OBzl(3,5-(CF3)2)} (also: TFA salt, TFA salt; also called TY005; TY5) [H-Tyr-D-Ala-Gly-Phe-Met-Pro-Leu-Trp-O-3,5-Bzl(CF3)2]
[35S]GTP-γ-S binding EC50 (human δ opioid receptor [1]): 2.9 nM
[35S]GTP-γ-S binding Emax (human δ opioid receptor [1]): 51%
[35S]GTP-γ-S binding LogEC50 (human δ opioid receptor [1]): -8.54
[35S]GTP-γ-S binding Emax (rat µ opioid receptor [2]): 45%
IC50 (rat NK1 receptor [3]): 6.4 nM
LogIC50 (rat NK1 receptor [3]): -8.22
[35S]GTPγS binding EC50 (human δ opioid receptor [4]): 2.9 nM
[35S]GTPγS binding Emax (human δ opioid receptor [4]): 48%
[35S]GTPγS binding LogEC50 (human δ opioid receptor [4]): -8.5
[35S]GTPγS binding Emax (rat µ opioid receptor [5]): 46%
Substance P GPI antagonist Ke (guinea pig NK1 receptor [6]): 24.7 nM
GPI (µ) opioid agonist IC50 [7]: 359 nM
Ki (human δ opioid receptor [8]): 2.8 nM
Ki (human δ opioid receptor [9]): 2.8 nM
LogIC50 (human δ opioid receptor [9]): -8.22
Ki (rat NK1 receptor [10]): 0.29 nM
LogIC50 (rat NK1 receptor [10]): -9

H-Y[dA]GF[dF]PLW-{OBzl(3,5-(CF3)2)} (also: TFA salt, TFA salt; also called TY007) [H-Tyr-D-Ala-Gly-Phe-D-Phe-Pro-Leu-Trp-O-3,5-Bzl(CF3)2]
[35S]GTP-γ-S binding EC50 (human δ opioid receptor [1]): 16.8 nM
[35S]GTP-γ-S binding Emax (human δ opioid receptor [1]): 26%
[35S]GTP-γ-S binding LogEC50 (human δ opioid receptor [1]): -7.78
[35S]GTP-γ-S binding EC50 (rat µ opioid receptor [2]): 345 nM
[35S]GTP-γ-S binding Emax (rat µ opioid receptor [2]): 22%
[35S]GTP-γ-S binding LogEC50 (rat µ opioid receptor [2]): -6.46
Ki(µ)/Ki(δ) (human δ opioid receptor [11]): 4.1
IC50 (rat NK1 receptor [3]): 66.7 nM
LogIC50 (rat NK1 receptor [3]): -7.22
Ki (rat µ opioid receptor [12]): 381 nM
LogIC50 (rat µ opioid receptor [12]): -6.09
Substance P GPI agonist (A50), contraction relative to KCl (guinea pig NK1 receptor [6]): 0 % at 1 µM
Substance P GPI antagonist Ke (guinea pig NK1 receptor [6]): 69.6 nM
GPI (µ) opioid agonist, % at 1 µM [7]: 9 % at 1 µM
Ki (human δ opioid receptor [9]): 93 nM
LogIC50 (human δ opioid receptor [9]): -6.7

H-Y[dA]GFGPLW-{OBzl(3,5-(CF3)2)} (also: TFA salt, TFA salt; also called TY006) [H-Tyr-D-Ala-Gly-Phe-Gly-Pro-Leu-Trp-O-3,5-Bzl(CF3)2]
[35S]GTP-γ-S binding EC50 (human δ opioid receptor [1]): 50.2 nM
[35S]GTP-γ-S binding Emax (human δ opioid receptor [1]): 35%
[35S]GTP-γ-S binding LogEC50 (human δ opioid receptor [1]): -7.3
[35S]GTP-γ-S binding EC50 (rat µ opioid receptor [2]): 41.7 nM
[35S]GTP-γ-S binding Emax (rat µ opioid receptor [2]): 39%
[35S]GTP-γ-S binding LogEC50 (rat µ opioid receptor [2]): -7.38
Ki(µ)/Ki(δ) (human δ opioid receptor [11]): 0.75
IC50 (rat NK1 receptor [3]): 15.6 nM
LogIC50 (rat NK1 receptor [3]): -7.83
Ki (rat µ opioid receptor [12]): 27 nM
LogIC50 (rat µ opioid receptor [12]): -7.24
Substance P GPI agonist (A50), contraction relative to KCl (guinea pig NK1 receptor [6]): 0 % at 1 µM
Substance P GPI antagonist Ke (guinea pig NK1 receptor [6]): 5.4 nM
GPI (µ) opioid agonist IC50 [7]: 384 nM
Ki (human δ opioid receptor [9]): 36.1 nM
LogIC50 (human δ opioid receptor [9]): -7.11

H-Y[dA]GFMPLW-NHBn (also: TFA salt, TFA salt; also called TY025) [H-Tyr-D-Ala-Gly-Phe-Met-Pro-Leu-Trp-NH-Bzl]
[35S]GTPγS binding EC50 (human δ opioid receptor [4]): 2.6 nM
[35S]GTPγS binding LogEC50 (human δ opioid receptor [4]): -8.6
[35S]GTPγS binding Emax (rat µ opioid receptor [5]): 47%
Ki (human δ opioid receptor [8]): 0.44 nM
LogIC50 (human δ opioid receptor [8]): -9.1
Ki (rat NK1 receptor [10]): 700 nM
LogIC50 (rat NK1 receptor [10]): -5.6

Y[dA]GFMPLW-{OBzl(3,5-(CF3)2)} (also called TY005) [TyrDAlaGlyPheMetProLeuTrpOBn(CF3)2]
IC50 (rat NK1 receptor [13]): 6.4 nM
GTP binding EC50 (human δ opioid receptor [14]): 2.9 nM
GTP binding Emax (human δ opioid receptor [14]): 47.6%
GTP binding Emax (rat µ opioid receptor [15]): 45.6%
GPI (µ) IC50 [16]: 360 nM
GPI Substance P antagonist Ke (guinea pig NK1 receptor [17]): 25 nM
Ki (human δ opioid receptor [18]): 2.8 nM
GPI/LMMP IC50 [19]: 359 nM
GPI/LMMP SP antagonist Ke (guinea pig NK1 receptor [20]): 24.7 nM
Ki (human δ opioid receptor [21]): 2.8 nM
Ki (rat NK1 receptor [22]): 0.2 nM
GPI/LMMP IC50 [23]: 359 nM
GPI/LMMP Substance P antagonist Ke (guinea pig NK1 receptor [24]): 24.7 nM

Y[dA]GFMPLW-NHBn (also called TY025) [TyrDAlaGlyPheMetProLeuTrpNHBn]
GPI (µ) IC50 [16]: 61 nM
GPI Substance P antagonist Ke (guinea pig NK1 receptor [17]): 9.9 nM
Ki (human δ opioid receptor [21]): 0.44 nM
GPI/LMMP IC50 [23]: 61.1 nM
GPI/LMMP Substance P antagonist Ke (guinea pig NK1 receptor [24]): 9.9 nM

B1: Tyr[DCysGlyPheNleProCys]TrpNHBn(CF3)2 (peptide)
peptide: Y[dC]GF[Nle]PCW-{NH(3,5-(CF3)2-benzyl)}
modifications: disulfide 2-7
notes: cyclic; also called TY035; [D-Cys2, Cys7]TY027
Ki (human NK1 receptor [25]): 0.1 nM
LogIC50 (human NK1 receptor [25]): -9.7
Ki (human δ opioid receptor [26]): 1.3 nM
LogIC50 (human δ opioid receptor [26]): -8.6
GPI (µ) IC50 [27]: 1000 nM
GPI Substance P antagonist Ke (guinea pig NK1 receptor [28]): 2.2 nM
[35S]GTPγS binding EC50 (human δ opioid receptor [29]): 0.02 nM
[35S]GTPγS binding Emax (human δ opioid receptor [29]): 11%
[35S]GTPγS binding LogEC50 (human δ opioid receptor [29]): -10.8
LogIC50 (rat NK1 receptor [30]): -7
Ki (rat µ opioid receptor [31]): 79 nM
LogIC50 (rat µ opioid receptor [31]): -6.8

Y[dA]GF[Nle]S(Glc″)LW-{NH(3,5-(CF3)2-benzyl)} (also called TY044) [TyrDAlaGlyPheNleSer(OGlu)LeuTrpNHBn(CF3)2]
GTP binding Emax (human δ opioid receptor [32]): 162%
GPI/LMMP IC50 [33]: 249 nM
GPI/LMMP SP antagonist Ke (guinea pig NK1 receptor [34]): 18.4 nM
GTP binding EC50 (rat µ opioid receptor [35]): 380 nM
GTP binding Emax (rat µ opioid receptor [35]): 85%
Ki (rat µ opioid receptor [36]): 3370 nM
Ki (human NK1 receptor [37]): 1.3 nM
